Laboratory results from patent publication US20240360189A1 (LUXEMBOURG INSTITUTE OF HEALTH LIH, published 2024).

Biological target: T1, HER2 on BT474 breast tumour cells (human, UniProt P04626 23-1255)
T1 construct: whole, on cells; also called HER2-positive BT474 cells
Test: flow cytometry, cross-linking of NK92MI and BT474 cells (data not shown)

B1: Z199 scFv anti-NKG2A.C4bp(beta).Fc[knob]/2D3 VHH anti-HER2.C4bp(beta).Fc[hole] bispecific pseudo-IgG (bispecific antibody)
chain 1: RSQVKLQQSGGGLVKPGGSLKLSCAASGFTFSSYAMSWVRQSPEKRLEWVAEISSGGSYTYYPDTVTGRFTISRDNAKNTLYLEISSLRSEDTAMYYCTRHGDYPRFFDVWGAGTTVTVSSGGGGSGGGGSGGGGSQIVLTQSPALMSASPGEKVTMTCSASSSVSYIYWYQQKPRSSPKPWIYLTSNLASGVPARFSGSGSGTSYSLTISSMEAEDAATYYCQQWSGNPYTFGGGTKLEIKRAAASGAGGGGSSGAGGSAGGGGSSGGGGSAGGGGSIQEAPKPECEKALLAFQESKNLCEAMENFMQQLKESGMTMEELKYSLELKKAELKAKLLEPKSCDKTHTCPPCPAPELLGGPSVFLFPPKPKDTLMISRTPEVTCVVVDVSHEDPEVKFNWYVDGVEVHNAKTKPREEQYNSTYRVVSVLTVLHQDWLNGKEYKCKVSNKALPAPIEKTISKAKGQPREPQVYTLPPCRDELTKNQVSLWCLVKGFYPSDIAVEWESNGQPENNYKTTPPVLDSDGSFFLYSALTVDKSRWQQGNVFSCSVMHEALHNHYTQKSLSLSPGK
chain 2: not shown
notes: also called Z199/2D3
Does B1 bind?
Result: binds
